The results in this text go back to paper PMC6130943, “Cytochrome P450 and O-methyltransferase catalyze the final steps in the biosynthesis of the anti-addictive alkaloid ibogaine from Tabernanthe iboga” (The Journal of Biological Chemistry, 2018).

The Km is the concentration of substrate that gives half-maximal velocity. The Vmax is the rate approached at saturating substrate. One may read the kcat as the number of substrate molecules converted per active site and unit of time at saturation. As a reminder, the kcat/Km is the second-order rate constant that governs catalysis at low substrate concentration.

The data set relates to CC[C@H]1C[C@@H]2C[C@H]3c4[nH]c5ccc(O)cc5c4CCN(C2)[C@@H]13. Put plainly: HPLC-MS of ibogaine formation, Michaelis-Menten fit. The data set is classed as biochemical, Tabernanthe iboga. As to conditions: SAM, HEPES, pH 9 (relative-rate assays adjusted to optimum), 30 °C, 25 min. The source says:
HPLC-MS of ibogaine formation, Michaelis-Menten fit on N10OMT (noribogaine-10-O-methyltransferase; OMT candidate 1)

With “N10OMT (noribogaine-10-O-methyltransferase; OMT candidate 1) (Tabernanthe iboga)”, the Km turned out to be 73.6 ± 28.5 µM, the Vmax stood at 0.00084 µmol/min/mg, the kcat was determined as 0.000548 ± 7.23e-05 s⁻¹ and the kcat/Km was 7.45 ± 3.05 M⁻¹ s⁻¹.
